# In patent US20230050846A1, “TREATMENT OF HEPATIC AND CARDIOVASCULAR DISORDERS” (LIFESEARCH, priority 2019, published 2023):
# Square brackets hold non-standard residues; d marks the D form. Ends that are not written are not given here. * marks the point of attachment. Biotin = O=C1N[C@H]2[C@H](CS[C@H]2CCCCC(=O)*)N1; Palmitoyl = CCCCCCCCCCCCCCCC(=O)*; AEEA = NCCOCCOCC(=O)O
# Legend:
# [1] = target: Human F1Fo-ATPase purified from HepG2 cells (human); test: SPR (BIAcore T200), His-tagged peptide immobilised on NTA chip, purified F1Fo-ATPase as analyte, single-cycle kinetics
# [2] = target: Human F1Fo-ATPase purified from HepG2 cells (human); test: SPR (BIAcore T200), single-cycle kinetics; peptide immobilised as ligand on NTA chip, F1Fo-ATPase as analyte injected at 31.25, 62.5, 125, 250 and 500 nM
# [3] = target: Human F1Fo-ATPase purified from HepG2 cells (human); test: SPR (BIAcore T200), biotinylated peptide immobilised on streptavidin chip, purified F1Fo-ATPase as analyte, single-cycle kinetics
# [4] = target: Human F1Fo-ATPase purified from HepG2 cells (human); test: SPR (BIAcore T200), single-cycle kinetics; peptide immobilised as ligand on streptavidin chip, F1Fo-ATPase as analyte injected at 31.25, 62.5, 125, 250 and 500 nM
Kd [1],koff [2],Kd [3],Kd [4],koff [4],Binder
19 nM,0.000643 s⁻¹,,,,Ac-RGAGSIREAGGAFGKREQAEEERYFRAQSREHHHHHH [Formula (I)-His-tag: CH3CO-[SEQ ID NO: 1]-HHHHHH]
,,4.45 nM,3 nM,6.85e-05 s⁻¹,Ac-RGAGSIREAGGAFGKREQAEEERYFRAQSREK(Palmitoyl)[AEEA]K(Biotin)-NH2 (SMILES CCCCCCCCCCCCCCCC(=O)NCCCC[C@H](NC(=O)[C@H](CCC(=O)O)NC(=O)[C@H](CCCNC(=N)N)NC(=O)[C@H](CO)NC(=O)[C@H](CCC(N)=O)NC(=O)[C@H](C)NC(=O)[C@H](CCCNC(=N)N)NC(=O)[C@H](Cc1ccccc1)NC(=O)[C@H](Cc1ccc(O)cc1)NC(=O)[C@H](CCCNC(=N)N)NC(=O)[C@H](CCC(=O)O)NC(=O)[C@H](CCC(=O)O)NC(=O)[C@H](CCC(=O)O)NC(=O)[C@H](C)NC(=O)[C@H](CCC(N)=O)NC(=O)[C@H](CCC(=O)O)NC(=O)[C@H](CCCNC(=N)N)NC(=O)[C@H](CCCCN)NC(=O)CNC(=O)[C@H](Cc1ccccc1)NC(=O)[C@H](C)NC(=O)CNC(=O)CNC(=O)[C@H](C)NC(=O)[C@H](CCC(=O)O)NC(=O)[C@H](CCCNC(=N)N)NC(=O)[C@@H](NC(=O)[C@H](CO)NC(=O)CNC(=O)[C@H](C)NC(=O)CNC(=O)[C@H](CCCNC(=N)N)NC(C)=O)[C@@H](C)CC)C(=O)NCCOCCOCC(=O)N[C@@H](CCCCNC(=O)CCCC[C@@H]1SC[C@@H]2NC(=O)N[C@@H]21)C(N)=O) [Formula (II)-Biotin: CH3CO-[SEQ ID NO: 1]-K-[palmitoyl]-AEEAc-K-[biotinyl]-NH2]
